Data as given in publication PMC7545097, “Mapping the native interaction surfaces of PREP1 with PBX1 by cross-linking mass-spectrometry and mutagenesis” (Scientific Reports, 2020).
Residue numbers refer to the chain shown, from its start.

T1: PBX1 with substitution of both 204 and 211 residues (I204A/I211A) (human, UniProt P40424 1-430, I204A | I211A)
T1 construct: PBX1, residues 1-430; source: E. coli, purified
T1 sequence (looked up): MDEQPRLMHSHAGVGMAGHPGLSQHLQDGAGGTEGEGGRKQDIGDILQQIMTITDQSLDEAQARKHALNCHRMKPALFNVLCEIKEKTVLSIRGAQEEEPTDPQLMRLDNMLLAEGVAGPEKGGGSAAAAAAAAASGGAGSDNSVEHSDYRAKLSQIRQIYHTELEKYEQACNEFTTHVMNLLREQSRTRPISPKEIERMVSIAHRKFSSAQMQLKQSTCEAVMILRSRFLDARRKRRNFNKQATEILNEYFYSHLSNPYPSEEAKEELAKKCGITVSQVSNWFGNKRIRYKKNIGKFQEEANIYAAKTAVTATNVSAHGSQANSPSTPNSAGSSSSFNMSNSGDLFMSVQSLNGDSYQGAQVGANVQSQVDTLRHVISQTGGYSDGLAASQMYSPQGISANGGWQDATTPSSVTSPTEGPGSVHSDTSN

T2: N-terminal GST-fused wild-type PREP1 (UniProt P55347 1-436)
T2 construct: PREP1 (PKNOX1), residues 1-436; Detected through GST in the ELISA; also called GST-fused PREP1; source: E. coli, purified; not shown: GST, N-terminal, kept
T2 sequence (looked up): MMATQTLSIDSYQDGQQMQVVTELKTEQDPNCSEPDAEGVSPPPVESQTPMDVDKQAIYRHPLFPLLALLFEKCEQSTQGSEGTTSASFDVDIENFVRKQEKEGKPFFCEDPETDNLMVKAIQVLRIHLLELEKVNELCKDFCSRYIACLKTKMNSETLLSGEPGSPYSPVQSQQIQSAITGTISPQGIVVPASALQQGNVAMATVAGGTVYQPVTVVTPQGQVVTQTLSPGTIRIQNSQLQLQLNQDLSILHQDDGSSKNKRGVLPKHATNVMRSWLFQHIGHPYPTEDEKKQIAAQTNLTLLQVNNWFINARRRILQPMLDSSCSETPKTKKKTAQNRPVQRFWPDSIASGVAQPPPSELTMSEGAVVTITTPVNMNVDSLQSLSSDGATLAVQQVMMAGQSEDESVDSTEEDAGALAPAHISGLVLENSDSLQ

T3: PREP1 L66A (UniProt P55347 1-436, L66A)
T3 construct: PREP1 (PKNOX1), residues 1-436
T3 sequence (looked up): T2 sequence (looked up) with L66A

T4: PREP1 L70A (UniProt P55347 1-436, L70A)
T4 construct: PREP1 (PKNOX1), residues 1-436
T4 sequence (looked up): T2 sequence (looked up) with L70A

B1: PREP1_(1-436), wild-type recombinant (TR-FIA) (natural protein, UniProt P55347 1-436, looked up)
chain: T2 sequence (looked up)
notes: also called wild-type PREP1; PKNOX1; source: E. coli, purified
B2: PBX1_(1-430), wild-type recombinant (natural protein, human, UniProt P40424 1-430, looked up)
chain: T1 sequence (looked up) with A204I, A211I
notes: also called wild-type PBX1; purified recombinant human PBX1; source: E. coli, purified

Tests used:
Details in all cases: both partners purified
[1] = biological target: T1, PBX1 with substitution of both 204 and …; test: time-resolved fluorescence immunoassay (TR-FIA); plate coated with monoclonal anti-PBX1; PBX1 pre-incubated with PREP1 or MEIS1 for 1 h on ice, 10 µg/mL in 1% BSA PBS, 1 h at room temperature on the plate; detected with anti-PREP1 or biotinylated anti-MEIS1/2 and Eu^3+ conjugates; normalised to the wild-type protein taken as 1
[2] = biological target: T2, N-terminal GST-fused wild-type PREP1; test: ELISA; PBX1 wild-type coated at 0.1 µM in 100 mM Tris–HCl pH 7.5; GST-fused proteins at 0.23 nM to 0.5 µM, 1 h at 37 °C; anti-GST detection; GST signal subtracted; one-site binding model
PREP1 L66A = biological target: T3, PREP1 L66A; test: time-resolved fluorescence immunoassay (TR-FIA); plate coated with monoclonal anti-PBX1; PBX1 pre-incubated with PREP1 or MEIS1 for 1 h on ice, 10 µg/mL in 1% BSA PBS, 1 h at room temperature on the plate; detected with anti-PREP1 or biotinylated anti-MEIS1/2 and Eu^3+ conjugates; normalised to the wild-type protein taken as 1
PREP1 L70A = biological target: T4, PREP1 L70A; test: as above

Binder	binding relative to wild type [1] [%]	Kd [2] [nM]	binding result (PREP1 L66A)	binding result (PREP1 L70A)
B1	~50	–	–	–
B2	–	18 ± 4	binds	binds
